According to publication PMC9907810:

Target: SARS-CoV-2 S-2P (engineered Spike ectodomain trimer with two stabilizing proline mutations) (SARS-CoV-2)
Assay: […] (200 mM NaCl, 20 mM Tris-HCl pH 7.5), 4 °C; […]

Q: With “SARS-CoV-2 S-2P (engineered Spike ectodomain trimer with two stabilizing proline mutations) (natural protein)” as the substance, how does the stoichiometry N read?
A: 3
